# Results taken from a protein production outcome set (Wang et al. 2014).
# Assay: label from the status in PepcDB records
# 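Also: failed if final PepcDB status was selected cloned or expressed and not failed if soluble or beyond.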
row,Sequence,protein production
1,MNVFQMLRLPDLVSLLNLICGIGSIAVAAQSDSFGFALILLLLAAVADGADGYIARRFKGGELGEQLDSLADAVSFGVAPALLIFLEFGVEEPIVGIFAGLYAVCGVLRLARFNSSISVPKAGFEGLPITAGCIMLVTYLLLGESFVIVDVLLALTLALSILMVSTVNYPKIRNIKILAFVAAVFGITMLLYFIDVQYMRVFSFLPFILMLSYLFSPFLKIPVISIATSKDYGNRKGAKAEGRKEKQ,failed
2,MNVKRIKKRMFITFSIIAVLAIALYIFLQTAPFGNPPADARLERIRKSANYKDGVFKNLSNTPVMAEDASYMDMIKQQFSKDSTREPAVCIPSVKRDLSLVPSDRPVITWFGHSTYLIQTEGKNILIDPVFCTSTSPVQFVGNKKYKGTEVYTPADFPAINYLILTHDHYDHLDYQTTLDMQSKVFSYYMPLGVGSHLESWGIDTAKLHELDWWQEIDLEPGYKLVCLPARHFSGRSITDRGKTLWASYLLITPTHKIYIGGDSGYDTHFKQIADKYGAVDIAFLESGQYNAYWPYIHMMPEQTVQAAKDLQAKVLLPVHWGKYTLALHPWDEPIKRLTLEAHKQQVNVATPMIGEPVILDSILPHSTWWVPEGKK,failed
3,MNVVRYTPWPGQAALQNEIKQVFDRFFEHNGDTDESAVVTAQWVPRVDIKEEPNQFVLYADLPGIDPADIEVQMDKGILSIKGERKTESSSQTEHFSRIERRYGSFHRRFALPDSADADGITASGSHGVLRILIPKQAATTPRRIQVGNAVSSDVALQSMLEHHHHHH,not failed
4,MNVYFLGGGNMAAAVAGGLVKQGGYRIYIANRGAEKRERLEKELGVETSATLPELHSDDVLILAVKPQDMEAACKNIRTNGALVLSVAAGLSVGTLSRYLGGTRRIVRVMPNTPGKIGLGVSGMYAEAEVSETDRRIADRIMKSVGLTVWLDDEEKMHGITGISGSGPAYVFYLLDALQNAAIRQGFDMAEARALSLATFKGAVALAEQTGEDFEKLQKNVTSKGGTTHEAVEAFRRHRVAEAISEGVCACVRRSQEMERQYQ,not failed
5,MNWQLKSKEAEVMNKLSLFLGCIVPNRYPGIEKATKLCLQRLEIDACDLPGASCCPAPGVFKSFDKATWLALASRNIVLSERMERDVLTVCNGCYGSLADANMELKKDPEMKACTNSCLKEIGMEFRGTSEIRHIIEFLYKEFGPEKLKEYITTPLDLKVALHYGCHLIKPSKDRNLGDTESPVFFDELVEATGAKSVDYTDKMMCCGAGGGVRSGYADESLEMLEHKLDCICKAGVDCIVNACPFCHLQFDRGQIAVNEKFGTDYSIPVLHYSQLLGLALGFSPDQLGIEQNAVQNIEFLAKIYEISAGLS,failed
6,MNYASNTFELIAKEWLQMKDWAEITKTRRLDMLERVVFPAIGKLPVREITPHHILKILQETAKRGAPTVAAEARRTISSVFELAVATLRADSDPVWPVRKALPANKTQHLEHHHHHH,not failed
7,MNYILHLSILLVVAKLLEWLFEKKDIHPIIAHILTGIILGPFLLGIIYPNEELKVLSEFGLIMMMLYMGLTSNFSAIAQNKVKAIVVASLGVAFSFILGFTTVYLFGKGISAALFVGITLGNTAIEVTSGVIMKERIKREISSVLMGAAFADDIIAVYLIGILTGMIKGQTSLLSLAILTIKIVAFILSVLIFSEFVFKKSSLIYNLVIKDLNVFFTFTIILTFSLAVIAEGIGLNRIIGAYLAGLTISRLRERKDPLIISRIKLNELINELQVVLTEFFIPLFFIYVGLMFDPDTSEINLLLIALLYASAILGKLIGCGLGVKVFKGSWKDAVIVGIGMGGRGSLDLALLKFGLESGMIGEDLFATTVIVSMLTALSTPIFFRKTVKKLSEE,failed
8,MNYPLTLEMDLENLEDLFWELDRLDNYNDTSLVENHLCPATEGPLMASFKAVFVPVAYSLIFLLGVIGNVLVLVILERHRQTRSSTETFLFHLAVADLLLVFILPFAVAEGSVGWVLGTFLCKTVIALHKVNFYCSSLLLACIAVDRYLAIVHAVHAYRHRRLLSIHITCGTIWLVGFLLALPEILFAKVSQGHHNNSLPRCTFSQENQAETHAWFTSRFLYHVAGFLLPMLVMGWCYVGVVHRLRQAQRRPQRQKAVRVAILVTSIFFLCWSPYHIVIFLDTLARLKAVDNTCKLNGSLPVAITMCEFLGLAHCCLNPMLYTFAGVKFRSDLSRLLTKLGCTGPASLCQLFPSWRRSSLSESENATSLTTF,failed
9,MNYRLIPALFLIVMGALFLLDNLGLAHMDVGNLIATWWPVFLIAAGVRQLLRYRQRAAATC,failed
10,MNYSHPISLKTLVQEDDIGVNAPIIHQSVIARLTAGLYPLYQSKKIPFEPLPETMLTEGYSSPVPDVLLYDHQTEEAKVIIEVCQNSGLKHDTSKIVKLIEDNAYGILEGFVFNYKTQQWLRYRLGDGGVATNSSFSEVLQVDLNTFV,not failed
11,MNYVVLGASAAGINAVKTLRELDKDSNIVVISKDENVYSRCMLHHVISEHRTLKQINFVDEDFMEQNNVKWIAGKTVKGIDINKKVVQTEDITVNYDKLLIATGASSAIPPIKNLRDGNFVYSVRNIDDIYKIKEKAQNSKNVVIIGAGLVGIDALVGLFKYEQLNISVAFMEKYILDRQLDEYTASVYENKFKEKGVKFYPSASIQEIVLDNSKNVTGVAFSNGEVLDADMVIVATGVKPNADFLDGTGIEYDRGIIIDDMCQTTQKDIYAAGDVVGKNAIWPLAVKQGIVAAYNMVGKDKKIEDEFAFKNSMNFMDIPTISIGMNTPVDDSYKVLTRHGINDYKKFVFKDNVIYGAVIQGDISYVGVLTYLIKNKVEIYDLENRIFDICYADFFNIKENGEFCYSV,failed
12,MPAAHPSAISFARQTKAIAMAAKIVPAPDYEDRVRASFARQQAMATIGAELTLVTPGIIEIEMPYSAALTQQHGFLHAGVISTALDSACGYAAFSLMPENSGVLTIEFKVNLLAPGRGERFLFRGSVTKPGRTIIVADGQAYAFAADGEAKLIATMTGTMMTVVGRDGIAG,failed
13,MPAFVTFGRILFAVLFIYTGATKLFAIQATADFIATKVVVPDIIAPYAKQIETATAMTTPQLLAIAVGALEIIAGLMIALNFGARFFAMLLIVYVAVATVLFYDFWNLAAPDNAKMLVDALKNLSIIGALCMIIGYGRATRPVEAAYGDV,failed
14,MPAGAVRRRLGRRAGGWENGGMSDSSPARPAAPVLDVWCELQCPDCHTALDDVRALRARYGDRLEVRLRHFPLEKHKYAFAAAQAAEEAVAQGRGWPYAEAVLDRVAELDRKGEPFLVEVARELGLDAEEFDTALIDGRHILIVDADQAEGKAIGVTGTPTYVIGGERLDGGKSQDGLRERIEEIADRLLAQPRD,failed
15,MPAIQSELDVNGEDFARNREAMLAAVAGFRELEQKVLDKAAEARPKFEKRGQLLPRERLALLLDPGAPFLELSSLAGYKLHDDKDGTQAGGGIIAGIGYIAGVRCLVSASNSAIKGGTISPTGLKKTLRLQQIAMENKLPVVTLTESGGANLNYAAEIFVEGARGFANQARISAMGIPQVTVVHGSSTAGGAYQPGLSDYVVVVRGKAKMFLAGPPLLKAATGEIASDEELGGAELHAQVAGTAEYLAENDADGVRLAREIVGMLPWNAQLPARPARSWREPLYPVEELLGVVPADPKKPYDVREIVARIADGSEFLDFKNEFDGQTVCGHLRIEGHACGLIGNNGPITPQGAAKAAQFIQLCEQSNTPLLFLHNTTGFMVGTESERQGVIKHGSKMIQAVANARVPKLTLVVGGSYGAGNYAMCGRGLDPRFIFAWPNSRTAVMGGAQAGKVLRIVTEEKHAKEGKEADPKMLEMLETVTAQKLDSQSTALYGTASLWDDGLVDPRDSRRLLGYLLDICAEAEARPLKGNSFGVAR,not failed
16,MPAKDVQICPIAVDTTVFRSRTWDRLKFEIEYGLQRGTTANSYLISADKIALFDPPGESFTDNFVGTLIQRLDLNSLDYVILGHVNANRAHTLKLLLSLAPQATIICSNPAAQNLEKLLADAEVNNPIQVMKGNDHLDLGRGHELTFIPTPSPRYPGQLCTYDPRTEILFTDKLFGAHVCGDQVFDEGWTIYQEDRRYYFDCLLAPAAAQVSAALNKLEAYPAQTYAPSHGPLVRYGLRELTRNYQQWLSEQQAQALEHHHHHH,failed
17,MPALSGPQYLGEGLKLIMRPGLRLFVLIPLTLNLLVFALLIGFAMQQFSHWVDLLMPSLPDWLSFLQYIVWPLFVLLVLVIVFFTFTMVANIISAPFNGFLSEKVEVVVRGRDDFPPFSWAELLAMIPRTMGREMRKLAYFLPRALVLLVLSFVPGVNLIATPLWILFGIWMMAVQYIDYPADNHKLGWNEMLAWLRSKRWACMGFGGVTYLALLIPLVNLVMMPAAVAGATLFWVREEGERALVK,failed
18,MPANPRILETMSQLFVSFPHCATLGFEYVGTDGRKPTLKLQWREDLVGNPATGILHGGVITSLVDTCSAIAVTAHLPELETIATLDLRIDYLKSATPGKAIHCTAECYRLASQIAFTRAVCYHDNPADPIAHGVATFMRESSLEHHHHHH,failed
19,MPAPRYKSGSSKKVYRKAPGNSSIVHYRRKKQSKAVCGACGALLNGVPRGRAVEITKLAKTEKRPERPFGGNLCPKCVKKMMVAKARNFLEHHHHHH,not failed
20,MPDITISWVAAILGLVVAIVLILKKFNPVYSLFFGAIVGCLIGGASLSDTVAVLLNGTQSIMGTAIRVLAAGMLAGVMMESGAAESIANAIVQKLGEKKAILSLALSTMVITAVGVFIPVAVLIVAPIALSVGKSTGISKLSLLIALSGGGKAGNIISPNPNTIAAANGFDLPLSDVMIAGFIPAVFGLITAVVLANIMRNKGSMVKETDLVEEQTKELLPLKKALIAPVLAIVLLLLNPIGAVLNISFIKSLNIDALYILPFASVVGTIAIGQTKQLAFYASSGLKRVTDTVLILIGAGAIAGLISVSDLSTQIVHLISVMGISGTFLAPISGILMGLAVGSTSTAVILATGSFGPAILDMGTSSLSAAVMVHTGATVIDSVPQGNYFHITAQSMNMTIKERIRVIPYEMCVGGVMTIVATILYGFILN,failed
21,MPDLMHSELTMSGPEQSLLAGALLGAGLPADAHRHLELAGRDYQSEALAEQHLREAHLLAPDHAAVLIGLYRFYFYKGRLGEALEVAQACLCKAARDNGLASDWRKVRRGDAEFSSYSAVLPRFYLFALKAYAYLQMRLGQLDEGHAAVEKLLELDPTDKVGAAVLLDVWRRIGQDDDD,failed
22,MPDPAAPGTLRPGGRTARIREAVLLAAGDALAADGFDALDLGEIARRAGVGKTTVYRRWGTPGGLAADLLADMAEQSLPRADTGALEEDLRANARLVVRTLDDPRQGRLFRALIAASLCNEQAAEALHRFYAVRVDEWAGCVRDAVARGEVPDGTDPHGVVAAVSAPLYYALLNTGRSLTEADADRAARAASTAARAGVWVTG,not failed
23,MPDPQISAIICTHNRDTYLGAAIDSLLVQDFAGEFEVVVIDNGSSDRTREVVEQRSSDSRLKYVFEPTIGLSVARNTGAKFASAEILAYLDDDAVASTHWLQVLYAAYQNYPQLAIAGGKVTLLWPPDTQPPRWLSSGLAGNLGAYDLGDKVVYIQQPGLTPRGLNYSIRRTFLEEIGGFDPHLGRVGKNLLSNEELQMTELALTGGWQVAYLPEALVAHNVAPERLNRSWFLNRGWWQGISECYREQLSGKAGVGQLSRGGERLARGLYKAFRYFSNPAERFDNLVYAYGQIGYLNAVLQGLLFTANNKGSQLEHHHHHH,not failed
24,MPDPRGGAQGGGVSGQEGPTLISSVQRAFRLMEAVGAHESGVPAKQLARETGLALGTTYHLLRTMVHDGYVRKLEDGTFVLGERLGALHAGSRDQTALSRVRPTLTELRDDLSAAAYLTLYEEGEIRVAEIVDGPKAPRVDLWVGFEDAGHATALGKSVLRELDAEARADYLSRHALNDLTPRTITYRAQLLRSLDAAPRGPAVTDLEEYRLGTACVAVPVRRGDTIGSLGISVDINRTACLDDAVTTLLATAERVSRGLSLTI,failed
25,MPDSPTLLDLFAEDIGHANQLLQLVDEEFQALERRELPVLQQLLGAKQPLMQQLERNGRARAEILREAGVSLDREGLARYARERADGAELLARGDELGELLERCQQANLRNGRIIRANQASTGSLLNILRGQDAPSLYDSRGGTASSSRQRPLSKA,not failed
